Test results as given in paper PMC4389238, “Non-canonical active site architecture of the radical SAM thiamin pyrimidine synthase” (Nature Communications, 2015).

Experiments:
[1] = molecular target: the molecule itself; assay: crystal structure; holo CcThiC with [4Fe-4S] cluster, no substrates; anaerobic, 140 mM HEPES pH 9.2, 7.5% PEG8000; space group C2; 2.93 Å
[2] = molecular target: the molecule itself; assay: crystal structure; AtThiC with [4Fe-4S] cluster co-crystallised anaerobically with combinations of IRN, AIR, SAH, 5'-dAdo, L-Met, Zn or Fe; hanging drop, room temperature; space groups P3(2)21 and C2; 1.25-1.84 Å

B1: Caulobacter crescentus ThiC, full length (enzyme)
chain: not shown
notes: ThiC (thiamin pyrimidine synthase), Caulobacter crescentus; Holds a [4Fe-4S] cluster; also called CcThiC; holo CcThiC; not shown: His6, N-terminal, cleaved
binding result [1]: binds

B2: Arabidopsis thaliana ThiC, ΔN71-AtThiC (residues 1-71 removed) (enzyme)
chain: not shown
notes: ThiC (thiamin pyrimidine synthase, HMP-P synthase), Arabidopsis thaliana; full-length protein has 644 residues; Holds a [4Fe-4S] cluster and an additional metal (Fe or Zn); The final 55 residues are not visible in the electron density.}; also called thiamin pyrimidine synthase; not shown: His6, N-terminal, cleaved
binding result [2]: binds
